Publication PMC10143413
Values belong to the substance of their own block, whether it stands above or below them.

Key:
[1] = target: Aldolase A, purified from rabbit skeletal muscle (rabbit) (UniProt P00883); experiment: SPR; Biacore T200, 25 °C; GAPDH, LDH or aldolase A amine-coupled to a CM5 chip, PKM1 as analyte in 0.05 M potassium phosphate buffer pH 7.4, 10 µL/min for 5 min; global fit to the 1:1 binding model
[2] = target: Lactate dehydrogenase, purified from rabbit skeletal muscle (rabbit) (UniProt P13491); experiment: as above
[3] = target: Pyruvate kinase PKM1, purified from rabbit skeletal muscle (rabbit) (UniProt P11974); experiment: SPR; Biacore T200, 25 °C; PKM1 amine-coupled to a CM5 chip, creatine kinase as analyte in 0.05 M potassium phosphate buffer pH 7.4, 10 µL/min for 5 min; global fit to the 1:1 binding model
Chain of Pyruvate kinase PKM1, purified from rabbit skeletal muscle (rabbit) (P11974 whole entry): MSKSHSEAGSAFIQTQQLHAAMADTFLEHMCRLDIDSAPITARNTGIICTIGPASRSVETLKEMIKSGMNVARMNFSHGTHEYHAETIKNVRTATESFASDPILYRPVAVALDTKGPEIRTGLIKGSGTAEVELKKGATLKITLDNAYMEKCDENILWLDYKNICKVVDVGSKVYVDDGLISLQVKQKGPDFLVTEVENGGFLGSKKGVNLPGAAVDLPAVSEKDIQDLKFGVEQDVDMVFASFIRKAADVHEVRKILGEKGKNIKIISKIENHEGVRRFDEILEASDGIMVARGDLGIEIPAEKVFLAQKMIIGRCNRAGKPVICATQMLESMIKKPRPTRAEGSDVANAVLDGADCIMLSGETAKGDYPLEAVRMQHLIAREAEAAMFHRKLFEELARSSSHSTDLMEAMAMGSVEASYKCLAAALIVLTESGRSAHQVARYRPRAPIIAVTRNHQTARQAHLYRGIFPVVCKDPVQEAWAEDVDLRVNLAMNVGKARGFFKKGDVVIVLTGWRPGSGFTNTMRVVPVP

Chain of Pyruvate kinase PKM1, purified from rabbit skeletal muscle, P11974-1 1-531 (enzyme; other documents disagree on this pair) (P11974 whole entry): as above
Chain of Pyruvate kinase PKM1, purified from rabbit skeletal muscle (P11974 whole entry): as above
Chain of Aldolase A, purified from rabbit skeletal muscle (rabbit) (P00883 whole entry): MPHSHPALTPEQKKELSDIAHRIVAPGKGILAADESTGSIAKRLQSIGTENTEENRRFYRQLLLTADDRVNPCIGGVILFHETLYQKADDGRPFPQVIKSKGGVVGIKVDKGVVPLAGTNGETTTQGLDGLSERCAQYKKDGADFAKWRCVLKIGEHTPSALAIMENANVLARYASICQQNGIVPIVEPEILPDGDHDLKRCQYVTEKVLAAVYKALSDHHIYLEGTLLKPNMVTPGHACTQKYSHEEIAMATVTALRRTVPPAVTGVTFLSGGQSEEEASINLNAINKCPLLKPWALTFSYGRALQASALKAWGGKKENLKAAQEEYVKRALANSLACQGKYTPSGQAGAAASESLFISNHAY

Kd [1]: 1410 nM
koff [1]: 0.00238 s⁻¹
kon [1]: 1690 M⁻¹ s⁻¹
Substance: Pyruvate kinase PKM1, purified from rabbit skeletal muscle, P11974-1 1-531 (enzyme; other documents disagree on this pair)

Kd [2]: 4800 nM
koff [2]: 0.00657 s⁻¹
kon [2]: 1370 M⁻¹ s⁻¹
Substance: Pyruvate kinase PKM1, purified from rabbit skeletal muscle (from UniProt P11974-1 1-531) (enzyme)

Kd [3]: 10.7 nM
koff [3]: 0.000924 s⁻¹
kon [3]: 86400 M⁻¹ s⁻¹
Substance: Creatine kinase from rabbit muscle (from UniProt P00563 1-381) (enzyme)
